From US20110152358A1, “Compositions and Methods for Diagnosis and Treatment of Pancreatic Ductal Cancer” (priority 2008, published 2011)

B1: sh2: lentiviral shRNA targeting 14-3-3σ, SEQ ID NO: 26 (sense) and 27 (antisense) (nucleic acid)
sense: TGGAGAGAGCCAGTCTGATCTTCAAGAGAGATCAGACTGGCTCTCTCCTTTTTTC
antisense: TCGAGAAAAAAGGAGAGAGCCAGTCTGATCTCTCTTGAAGATCAGACTGGCTCTCTCCA
B2: shCtrl: scrambled control shRNA not targeting any known mammalian gene, SEQ ID NO: 28 and 29 (nucleic acid)
chain 1: TACGAGCGAGGTGCCGATATTTCAAGAGAATATCGGCACCTCGCTCGTTTTTTTC
chain 2: TCGAGAAAAAAACGAGCGAGGTGCCGATATTCTCTTGAAATATCGGCACCTCGCTCGTA
B3: sh1: lentiviral shRNA targeting 14-3-3σ, SEQ ID NO: 24 (sense) and 25 (antisense) (nucleic acid)
sense: TCGAGACAACCTGACACTGTTTCAAGAGAACAGTGTCAGGTTGTCTCGTTTTTTC
antisense: TCGAGAAAAAACGAGACAACCTGACACTGTTCTCTTGAAACAGTGTCAGGTTGTCTCGA

How the values were obtained:
Format in all cases: cell-based, human
[1] = test system: 14-3-3σ; test: downregulation of 14-3-3σ by lentiviral shRNA in T3M4 cells (western blotting, Q-PCR); conditions: for 14-3-3σ levels: MOI of 40
[2] = test system: T3M4 cells; test: cisplatinum induced apoptosis, immunoblot of cleaved PARP and cleaved caspase-3, shRNA infected T3M4 cells; conditions: cisplatinum 10 νg/mL for 2, 6, or 24 hours
Protocol: Sham or 14-3-3σ transfected PANC-1 cells were incubated for 24 hours in complete medium in the absence or presence of 10 μg/mL of cisplatinum. Scrambled or 14-3-3σ specific shRNA infected T3M4 cells were incubated in complete medium for 24 hours that was supplemented with 10 μg/mL cisplatinum for the initial 2 or 6 hours, or the entire 24 hours. Both floating and adherent cells were then collected and lysed in the buffer containing protease inhibitors, subjected to 10% SDS-PAGE, and immunoblotted with specific antibodies against cleaved Poly (ADP-ribose) Polymerase (PARP) and cleaved caspase-3 (Cell Signaling Technology, Danvers, Mass.).

[3] = test system: T3M4 cells; test: in vitro wound-healing (migration) assay, shRNA infected T3M4 cells; conditions: serum free; 24 hours; percentage change in wound area
Protocol: To assess the motility properties, in vitro wound-healing assays or migration assays were performed. Cells were grown to confluence in 6-well tissue culture plates, serum starved overnight, and the monolayer was scratched with a 200 μL pipette tip generating two parallel wounds. The scratched wells were washed to remove cell debris and incubated for the next 24 hours in serum free media in the absence or presence 1 nmol/L EGF with or without the Src family kinase inhibitor PP2 (4-amino-5-(4-chlorophenyl)-7-(t-butyl)pyrazolo[3,4-d]pyrimidine) (Alexis, La Jolla, Calif.). To monitor cell migration, photographs were taken of each well at five marked locations under 40× magnification immediately after wounding (t0) and again 24 hours after wounding (t24), using an inverted microscope fitted with a digital camera (Nikon Diaphot 300, Nikon, Japan). The wound area of five matched pictures at t0 and t24 from each well were then measured using the ImageJ software (NIH, Bethedsa, Md.), and the percentage change in the wound area was calculated.

| Molecule | knockdown of 14-3-3σ, sh2 relative to sh1 [1] | 14-3-3σ levels [1] | sensitivity of sh2 infected cells to cisplatinum compared to sh1 [2] | sensitivity of shRNA infected cells to cisplatinum versus control cells [2] | basal motility of shRNA infected cells [3] |
| --- | --- | --- | --- | --- | --- |
| B1 | more effective than sh1 | reduce | relatively more sensitive | significantly more sensitive than control cells | 20% |
| B2 | – | did not alter | – | – | 20% |
| B3 | – | reduce | – | significantly more sensitive than control cells | 20% |
